Results on 94 variants are retold here after the supplement of paper PMC10567573.

B1: NECAB1 (parent)
chain: NLDTEELCEYFSQHLGEYENVLAA
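Further: lentivirally expressed fusions sorted by FACS into six bins by GFP to DsRed ratio, PSI derived from sequencing read proportions per bin multiplied by bin number.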

Variants of B1 are the subject of this data set. Put plainly: protein stability index of a GFP-peptide fusion (GPS, HEK-293T) (PSI 1-6); higher = more stable. The note with it: c terminus: a fixed tail appended.
Take NLDTEELCEYFSQHLGELENVLAA [Y18L]: the protein stability index turned out to be 2.3.

Turning to NLDTEELCEYFSQHLGEQENVLAA [Y18Q], the protein stability index was found to be 4.61.

In the case of NLDTEELCEYFSQHLGENENVLAA [Y18N], the protein stability index was found to be 4.27.

In the case of NLDTEELCEYFSQHLGEKENVLAA [Y18K], the protein stability index turned out to be 4.71.

Take NLDTEELCEYFSQHLGEMENVLAA [Y18M]: the protein stability index amounted to 3.6.

In the case of NLDTEELCEYFSQHLGERENVLAA [Y18R], the protein stability index is 4.21.

As to NLDTEELCEYFSQHLGEHENVLAA [Y18H], the protein stability index was 4.47.

In the case of NLDTEELCEYFSQHLGETENVLAA [Y18T], the protein stability index is 4.37.

With NLDTEELCEYFSQHLGECENVLAA [Y18C], the protein stability index worked out at 4.03.

With NLDTEELCEYFSQHLGEVENVLAA [Y18V], the protein stability index turned out to be 3.14.

For NLDTEELCEYFSQHLGEAENVLAA [Y18A], the protein stability index worked out at 4.2.

On to NLDTEELCEYFSQHLGEWENVLAA [Y18W], for which the protein stability index came to 1.8.

For NLDTEELCEYFSQHLGESENVLAA [Y18S], the protein stability index was 4.56.

With NLDTEELCEYFSQHLGEPENVLAA [Y18P], the protein stability index turned out to be 4.28.

For the variant NLDTEELCEYFSQHLGEEENVLAA [Y18E], the protein stability index was 5.13.

Regarding NLDTEELCEYFSQHLGEFENVLAA [Y18F], the protein stability index was 2.31.

On to NLDTEELCEYFSQHLGEIENVLAA [Y18I], for which the protein stability index came out at 2.07.

In the case of NLDTEELCEYFSQHLGEGENVLAA [Y18G], the protein stability index was 4.46.

For NLDTEELCEYFSQHLGEDENVLAA [Y18D], the protein stability index was 5.13.

NLDTEELCEYFSQHLGNYENVLAA [E17N]: the protein stability index is 2.14.

On to NLDTEELCEYFSQHLGQYENVLAA [E17Q], for which the protein stability index was found to be 1.66.

NLDTEELCEYFSQHLGSYENVLAA [E17S]: the protein stability index was determined as 2.99.

With NLDTEELCEYFSQHLGRYENVLAA [E17R], the protein stability index worked out at 2.76.

For the variant NLDTEELCEYFSQHLGMYENVLAA [E17M], the protein stability index was determined as 2.17.

As to NLDTEELCEYFSQHLGPYENVLAA [E17P], the protein stability index was found to be 2.64.

Take NLDTEELCEYFSQHLGLYENVLAA [E17L]: the protein stability index was 2.62.

As to NLDTEELCEYFSQHLGYYENVLAA [E17Y], the protein stability index worked out at 2.65.

Take NLDTEELCEYFSQHLGVYENVLAA [E17V]: the protein stability index worked out at 2.33.

NLDTEELCEYFSQHLGKYENVLAA [E17K]: the protein stability index is 1.34.

As for NLDTEELCEYFSQHLGTYENVLAA [E17T], the protein stability index was determined as 2.51.

NLDTEELCEYFSQHLGWYENVLAA [E17W]: the protein stability index came out at 2.11.

For NLDTEELCEYFSQHLGIYENVLAA [E17I], the protein stability index was found to be 2.84.

As for NLDTEELCEYFSQHLGEYGNVLAA [E19G], the protein stability index came out at 2.34.

As for NLDTEELCEYFSQHLGEYINVLAA [E19I], the protein stability index is 4.56.

Consider NLDTEELCEYFSQHLGEYHNVLAA [E19H], for which the protein stability index is 1.97.

As for NLDTEELCEYFSQHLGEYYNVLAA [E19Y], the protein stability index came out at 1.93.

On to NLDTEELCEYFSQHLGEYANVLAA [E19A], for which the protein stability index came out at 1.66.

As to NLDTEELCEYFSQHLGEYWNVLAA [E19W], the protein stability index was determined as 1.82.

For the variant NLDTEELCEYFSQHLGEYTNVLAA [E19T], the protein stability index turned out to be 2.07.

With NLDTEELCEYFSQHLGEYNNVLAA [E19N], the protein stability index was found to be 2.87.

Regarding NLDTEELCEYFSQHLGEYDNVLAA [E19D], the protein stability index was found to be 3.98.

With NLDTEELCEYFSQHLGEYRNVLAA [E19R], the protein stability index stood at 1.84.

Consider NLDTEELCEYFSQHLGEYFNVLAA [E19F], for which the protein stability index was found to be 1.97.

Turning to NLDTEELCEYFSQHLGEYCNVLAA [E19C], the protein stability index was found to be 1.83.

As to NLDTEELCEYFSQHLGEYVNVLAA [E19V], the protein stability index came to 1.53.

For NLDTEELCEYFSQHLGEYMNVLAA [E19M], the protein stability index turned out to be 2.18.

With NLDTEELCEYFSQHLGEYLNVLAA [E19L], the protein stability index was determined as 1.82.

As to NLDTEELCEYFSQHLGEYSNVLAA [E19S], the protein stability index is 2.11.

Consider NLDTEELCEYFSQHLGEYPNVLAA [E19P], for which the protein stability index amounted to 2.91.

NLDTEELCEYFSQHLGEYQNVLAA [E19Q]: the protein stability index was 2.4.

On to NLDTEELCEYFSQHLGEYKNVLAA [E19K], for which the protein stability index was found to be 2.67.

As to NLDTEELCEYFSQHLGEYESVLAA [N20S], the protein stability index was determined as 3.05.

On to NLDTEELCEYFSQHLGEYEYVLAA [N20Y], for which the protein stability index was found to be 3.07.

As to NLDTEELCEYFSQHLGEYEGVLAA [N20G], the protein stability index worked out at 3.22.

For the variant NLDTEELCEYFSQHLGEYEFVLAA [N20F], the protein stability index was 1.66.

Consider NLDTEELCEYFSQHLGEYEKVLAA [N20K], for which the protein stability index was determined as 1.94.

Regarding NLDTEELCEYFSQHLGEYERVLAA [N20R], the protein stability index amounted to 2.25.

For the variant NLDTEELCEYFSQHLGEYEQVLAA [N20Q], the protein stability index worked out at 2.14.

NLDTEELCEYFSQHLGEYEIVLAA [N20I]: the protein stability index was found to be 1.59.

Regarding NLDTEELCEYFSQHLGEYEHVLAA [N20H], the protein stability index is 2.67.

With NLDTEELCEYFSQHLGEYELVLAA [N20L], the protein stability index is 1.23.

In the case of NLDTEELCEYFSQHLGEYEDVLAA [N20D], the protein stability index was determined as 2.71.

For NLDTEELCEYFSQHLGEYECVLAA [N20C], the protein stability index is 2.05.

With NLDTEELCEYFSQHLGEYEVVLAA [N20V], the protein stability index was found to be 4.33.

Regarding NLDTEELCEYFSQHLGEYEAVLAA [N20A], the protein stability index was 2.03.

As to NLDTEELCEYFSQHLGEYEWVLAA [N20W], the protein stability index is 2.03.

Turning to NLDTEELCEYFSQHLGEYEEVLAA [N20E], the protein stability index is 2.74.

For NLDTEELCEYFSQHLGEYEMVLAA [N20M], the protein stability index was 1.93.

In the case of NLDTEELCEYFSQHLGEYEPVLAA [N20P], the protein stability index amounted to 2.32.

NLDTEELCEYFSQHLGEYETVLAA [N20T]: the protein stability index worked out at 1.78.

Take NLDTEELCEYFSQHLGEYENVDAA [L22D]: the protein stability index was 4.98.

Consider NLDTEELCEYFSQHLGEYENVAAA [L22A], for which the protein stability index came out at 4.35.

Turning to NLDTEELCEYFSQHLGEYENVFAA [L22F], the protein stability index came to 1.86.

Take NLDTEELCEYFSQHLGEYENVEAA [L22E]: the protein stability index was 4.42.

Consider NLDTEELCEYFSQHLGEYENVCAA [L22C], for which the protein stability index turned out to be 4.64.

In the case of NLDTEELCEYFSQHLGEYENMLAA [V21M], the protein stability index worked out at 1.88.

Turning to NLDTEELCEYFSQHLGEYENELAA [V21E], the protein stability index worked out at 4.2.

Take NLDTEELCEYFSQHLGEYENDLAA [V21D]: the protein stability index worked out at 4.86.

Consider NLDTEELCEYFSQHLGEYENKLAA [V21K], for which the protein stability index is 2.07.

NLDTEELCEYFSQHLGEYENGLAA [V21G]: the protein stability index amounted to 4.32.

NLDTEELCEYFSQHLGEYENSLAA [V21S]: the protein stability index was found to be 3.88.

Regarding NLDTEELCEYFSQHLGEYENPLAA [V21P], the protein stability index was 4.46.

For the variant NLDTEELCEYFSQHLGEYENWLAA [V21W], the protein stability index came to 1.68.

NLDTEELCEYFSQHLGEYENFLAA [V21F]: the protein stability index worked out at 2.08.

NLDTEELCEYFSQHLGEYENCLAA [V21C]: the protein stability index was 3.01.

Turning to NLDTEELCEYFSQHLGEYENLLAA [V21L], the protein stability index came out at 2.76.

Turning to NLDTEELCEYFSQHLGEYENALAA [V21A], the protein stability index worked out at 2.9.

As for NLDTEELCEYFSQHLGEYENQLAA [V21Q], the protein stability index came out at 3.52.

Turning to NLDTEELCEYFSQHLGEYENNLAA [V21N], the protein stability index stood at 4.05.

As for NLDTEELCEYFSQHLGEYENTLAA [V21T], the protein stability index was 3.43.

With NLDTEELCEYFSQHLGEYENRLAA [V21R], the protein stability index was determined as 2.97.

Take NLDTEELCEYFSQHLGEYENILAA [V21I]: the protein stability index amounted to 1.83.

Consider NLDTEELCEYFSQHLGEYENYLAA [V21Y], for which the protein stability index was determined as 1.98.

Turning to NLDTEELCEYFSQHLGEYENHLAA [V21H], the protein stability index was determined as 3.14.
